Consider 9 molecules from patent publication US20180016318A1 (Eli Lilly, published 2018).

Starred links: 1 amine or outer side, 2 acyl side, 3 side chain; linkers in the order of their positions; H or OH if unused. Non-standard residues stand in square brackets, D forms with d. Groups on a side chain read outwards from the residue. No end group written: not given here. *: point of attachment. C20 diacid = O=C(O)CCCCCCCCCCCCCCCCCCC(=O)*; C18 diacid = O=C(O)CCCCCCCCCCCCCCCCC(=O)*; γGlu = O=C(O)[C@H](CCC(=O)[*:2])N[*:1]; NMeI = CC[C@H](C)[C@H](NC)C(=O)O; AEEA = NCCOCCOCC(=O)O

In experiment [1] the target is human CRHR1 (corticotropin releasing hormone receptor-1) (human) (UniProt P34998). Nature of the experiment: cell-based or functional assay.
The target of experiment [2] is T1, human CRHR1 (corticotropin releasing hormone receptor-1) (human, UniProt P34998 24-415).
T1 sequence (looked up): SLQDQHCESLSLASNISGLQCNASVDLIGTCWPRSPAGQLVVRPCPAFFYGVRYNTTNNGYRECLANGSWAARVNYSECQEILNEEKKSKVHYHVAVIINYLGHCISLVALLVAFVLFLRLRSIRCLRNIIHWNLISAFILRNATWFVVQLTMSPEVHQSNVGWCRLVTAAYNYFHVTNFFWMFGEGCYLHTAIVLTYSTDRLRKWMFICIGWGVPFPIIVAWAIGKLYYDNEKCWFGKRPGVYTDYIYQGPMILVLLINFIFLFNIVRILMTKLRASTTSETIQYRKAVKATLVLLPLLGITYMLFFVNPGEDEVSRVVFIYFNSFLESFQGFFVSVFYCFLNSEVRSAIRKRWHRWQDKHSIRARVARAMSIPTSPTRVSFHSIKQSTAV
Nature of the experiment: cell-based or functional assay.

For “human UCN1 (urocortin-1) (from UniProt P55089 83-122) (ligand)”, in experiment [1], the Average EC50 (nM), cell-based cAMP assay, Y79 cells with endogenous human CRHR1 is 7.3 nM.

For the molecule [NMeI]VLSLDVPIGLLQILLEQEKQEKEKQQAK([AEEA-AEEA-γGlu-γGlu-C20 diacid])TNAQILAQV-NH2 [Example 4 (SEQ ID NO: 4)], the “Average EC50 (nM), cell-based cAMP assay, Y79 cells with endogenous human CRHR1” value (“Average EC50 (nM), cell-based cAMP assay” below) in experiment [2] is above 100000 nM. Same read-out and setting: under IVLSLDVPIGLLQILLEQARARAAREQATTNARILARV-NH2 (ligand) [human UCN2 (urocortin-2)] stands above 100000 nM; under Ac-IVLSLDVPIGLLQILLEQEKQEKEKQQAK([AEEA-AEEA-γGlu-γGlu-C20 diacid])TNAQILAQV-NH2 [Example 2 (SEQ ID NO: 2)], above 10000 nM.

B1: Example 3 (SEQ ID NO: 3) (peptide)
peptide: [NMeI]VLSLDVPIGLLQILLEQEKQEKEKQQAK([AEEA-AEEA-γGlu-γGlu-C18 diacid])TNAQILAQV-NH2
modifications: N-terminus assumed
SMILES: CC[C@H](C)[C@H](NC)C(=O)N[C@H](C(=O)N[C@@H](CC(C)C)C(=O)N[C@@H](CO)C(=O)N[C@@H](CC(C)C)C(=O)N[C@@H](CC(=O)O)C(=O)N[C@H](C(=O)N1CCC[C@H]1C(=O)N[C@H](C(=O)NCC(=O)N[C@@H](CC(C)C)C(=O)N[C@@H](CC(C)C)C(=O)N[C@@H](CCC(N)=O)C(=O)N[C@H](C(=O)N[C@@H](CC(C)C)C(=O)N[C@@H](CC(C)C)C(=O)N[C@@H](CCC(=O)O)C(=O)N[C@@H](CCC(N)=O)C(=O)N[C@@H](CCC(=O)O)C(=O)N[C@@H](CCCCN)C(=O)N[C@@H](CCC(N)=O)C(=O)N[C@@H](CCC(=O)O)C(=O)N[C@@H](CCCCN)C(=O)N[C@@H](CCC(=O)O)C(=O)N[C@@H](CCCCN)C(=O)N[C@@H](CCC(N)=O)C(=O)N[C@@H](CCC(N)=O)C(=O)N[C@@H](C)C(=O)N[C@@H](CCCCNC(=O)COCCOCCNC(=O)COCCOCCNC(=O)CC[C@H](NC(=O)CC[C@H](NC(=O)CCCCCCCCCCCCCCCCC(=O)O)C(=O)O)C(=O)O)C(=O)N[C@H](C(=O)N[C@@H](CC(N)=O)C(=O)N[C@@H](C)C(=O)N[C@@H](CCC(N)=O)C(=O)N[C@H](C(=O)N[C@@H](CC(C)C)C(=O)N[C@@H](C)C(=O)N[C@@H](CCC(N)=O)C(=O)N[C@H](C(N)=O)C(C)C)[C@@H](C)CC)[C@@H](C)O)[C@@H](C)CC)[C@@H](C)CC)C(C)C)C(C)C
For B1, the “Average EC50 (nM), cell-based cAMP assay” value in experiment [2] is above 100000 nM.

B2: Example 1 (SEQ ID NO: 1) (peptide)
peptide: Ac-IVLSLDVPIGLLQILLEQEKQEKEKQQAK([AEEA-AEEA-γGlu-γGlu-C18 diacid])TNAQILAQV-NH2
SMILES: CC[C@H](C)[C@H](NC(C)=O)C(=O)N[C@H](C(=O)N[C@@H](CC(C)C)C(=O)N[C@@H](CO)C(=O)N[C@@H](CC(C)C)C(=O)N[C@@H](CC(=O)O)C(=O)N[C@H](C(=O)N1CCC[C@H]1C(=O)N[C@H](C(=O)NCC(=O)N[C@@H](CC(C)C)C(=O)N[C@@H](CC(C)C)C(=O)N[C@@H](CCC(N)=O)C(=O)N[C@H](C(=O)N[C@@H](CC(C)C)C(=O)N[C@@H](CC(C)C)C(=O)N[C@@H](CCC(=O)O)C(=O)N[C@@H](CCC(N)=O)C(=O)N[C@@H](CCC(=O)O)C(=O)N[C@@H](CCCCN)C(=O)N[C@@H](CCC(N)=O)C(=O)N[C@@H](CCC(=O)O)C(=O)N[C@@H](CCCCN)C(=O)N[C@@H](CCC(=O)O)C(=O)N[C@@H](CCCCN)C(=O)N[C@@H](CCC(N)=O)C(=O)N[C@@H](CCC(N)=O)C(=O)N[C@@H](C)C(=O)N[C@@H](CCCCNC(=O)COCCOCCNC(=O)COCCOCCNC(=O)CC[C@H](NC(=O)CC[C@H](NC(=O)CCCCCCCCCCCCCCCCC(=O)O)C(=O)O)C(=O)O)C(=O)N[C@H](C(=O)N[C@@H](CC(N)=O)C(=O)N[C@@H](C)C(=O)N[C@@H](CCC(N)=O)C(=O)N[C@H](C(=O)N[C@@H](CC(C)C)C(=O)N[C@@H](C)C(=O)N[C@@H](CCC(N)=O)C(=O)N[C@H](C(N)=O)C(C)C)[C@@H](C)CC)[C@@H](C)O)[C@@H](C)CC)[C@@H](C)CC)C(C)C)C(C)C
Regarding B2, the “Average EC50 (nM), cell-based cAMP assay” value in experiment [2] was around 10000 nM.

B3: Example 7 (SEQ ID NO: 7) (peptide)
peptide: [NMeI]VTSLDVPIGLLQILIEQEKQEKEKQQAK([AEEA-AEEA-γGlu-γGlu-C20 diacid])TNAEILAQV-NH2
modifications: N-terminus assumed
SMILES: CC[C@H](C)[C@H](NC)C(=O)N[C@H](C(=O)N[C@H](C(=O)N[C@@H](CO)C(=O)N[C@@H](CC(C)C)C(=O)N[C@@H](CC(=O)O)C(=O)N[C@H](C(=O)N1CCC[C@H]1C(=O)N[C@H](C(=O)NCC(=O)N[C@@H](CC(C)C)C(=O)N[C@@H](CC(C)C)C(=O)N[C@@H](CCC(N)=O)C(=O)N[C@H](C(=O)N[C@@H](CC(C)C)C(=O)N[C@H](C(=O)N[C@@H](CCC(=O)O)C(=O)N[C@@H](CCC(N)=O)C(=O)N[C@@H](CCC(=O)O)C(=O)N[C@@H](CCCCN)C(=O)N[C@@H](CCC(N)=O)C(=O)N[C@@H](CCC(=O)O)C(=O)N[C@@H](CCCCN)C(=O)N[C@@H](CCC(=O)O)C(=O)N[C@@H](CCCCN)C(=O)N[C@@H](CCC(N)=O)C(=O)N[C@@H](CCC(N)=O)C(=O)N[C@@H](C)C(=O)N[C@@H](CCCCNC(=O)COCCOCCNC(=O)COCCOCCNC(=O)CC[C@H](NC(=O)CC[C@H](NC(=O)CCCCCCCCCCCCCCCCCCC(=O)O)C(=O)O)C(=O)O)C(=O)N[C@H](C(=O)N[C@@H](CC(N)=O)C(=O)N[C@@H](C)C(=O)N[C@@H](CCC(=O)O)C(=O)N[C@H](C(=O)N[C@@H](CC(C)C)C(=O)N[C@@H](C)C(=O)N[C@@H](CCC(N)=O)C(=O)N[C@H](C(N)=O)C(C)C)[C@@H](C)CC)[C@@H](C)O)[C@@H](C)CC)[C@@H](C)CC)[C@@H](C)CC)C(C)C)[C@@H](C)O)C(C)C
B3: in experiment [2], the “Average EC50 (nM), cell-based cAMP assay” value was around 100000 nM.

B4: Example 6 (SEQ ID NO: 6) (peptide)
peptide: [NMeI]VLSLDVPIGLLQILLEQEKQEKEKQQAK([AEEA-AEEA-γGlu-γGlu-C20 diacid])TNAEILAQV-NH2
modifications: N-terminus assumed
SMILES: CC[C@H](C)[C@H](NC)C(=O)N[C@H](C(=O)N[C@@H](CC(C)C)C(=O)N[C@@H](CO)C(=O)N[C@@H](CC(C)C)C(=O)N[C@@H](CC(=O)O)C(=O)N[C@H](C(=O)N1CCC[C@H]1C(=O)N[C@H](C(=O)NCC(=O)N[C@@H](CC(C)C)C(=O)N[C@@H](CC(C)C)C(=O)N[C@@H](CCC(N)=O)C(=O)N[C@H](C(=O)N[C@@H](CC(C)C)C(=O)N[C@@H](CC(C)C)C(=O)N[C@@H](CCC(=O)O)C(=O)N[C@@H](CCC(N)=O)C(=O)N[C@@H](CCC(=O)O)C(=O)N[C@@H](CCCCN)C(=O)N[C@@H](CCC(N)=O)C(=O)N[C@@H](CCC(=O)O)C(=O)N[C@@H](CCCCN)C(=O)N[C@@H](CCC(=O)O)C(=O)N[C@@H](CCCCN)C(=O)N[C@@H](CCC(N)=O)C(=O)N[C@@H](CCC(N)=O)C(=O)N[C@@H](C)C(=O)N[C@@H](CCCCNC(=O)COCCOCCNC(=O)COCCOCCNC(=O)CC[C@H](NC(=O)CC[C@H](NC(=O)CCCCCCCCCCCCCCCCCCC(=O)O)C(=O)O)C(=O)O)C(=O)N[C@H](C(=O)N[C@@H](CC(N)=O)C(=O)N[C@@H](C)C(=O)N[C@@H](CCC(=O)O)C(=O)N[C@H](C(=O)N[C@@H](CC(C)C)C(=O)N[C@@H](C)C(=O)N[C@@H](CCC(N)=O)C(=O)N[C@H](C(N)=O)C(C)C)[C@@H](C)CC)[C@@H](C)O)[C@@H](C)CC)[C@@H](C)CC)C(C)C)C(C)C
Consider B4, for which the “Average EC50 (nM), cell-based cAMP assay” value in experiment [2] was above 100000 nM. On the same count and under the same terms, under [NMeI]VTSLDVPIGLLQILLEQEKQEKEKQQAK([AEEA-AEEA-γGlu-γGlu-C20 diacid])TNAEILAQV-NH2 [Example 5 (SEQ ID NO: 5)] stands 33900 nM.
